Consider 5 molecules from patent US20120230939A1 (BOARD OF TRUSTEES OF THE UNIVERSITY OF ILLINOIS, published 2012).

Experiment [1] has as its target T1, HLA-A0201 (human).
T1 construct: whole, on cells; also called HLA-A201; HLA-A2
The experiment in a line: cell-based or functional assay.

Experiment [2] deals with T1, HLA-A0201. Description: T2 binding assay: stabilisation of HLA-A2 on T2 cells, flow cytometry. Background: In flow cytometry, cells or beads pass a laser one at a time.
Excerpt: HLA-A2 expression was visualized by direct staining with FITC conjugated MA2.1 antibody or an isotype control (BD Biosciences, San Diego, Calif.) followed by analysis on a FC500 flow cytometer (Beckman Coulter, Miami, Fla.).
Experiment [3] concerns the target T1, HLA-A0201. The experiment in a line: T2 binding assay: HLA-A2 expression on T2 cells, flow cytometry.
Description: Briefly, T2 cells (5×10⁵/well) were pulsed with PSA-peptide or DMSO at the designated concentration and cultured in 24-well plates overnight (18 hours) at 37° C. in 5% CO₂ atmosphere.

On to anti-HLA-A2 monoclonal antibody (BB7.2), for which the fold decrease in cytolytic activity of CD8+ CTL induced with TEM8 298-306 against HepG2 targets (12-hour chromium release assay) with HLA-A0201 [1] was 2 fold.

As to TLNEKPFSV (Synthetic peptide, >95% purity) [TEM8 266-274 peptide], the binding result with HLA-A0201 [2] was “no binding (tested: 1 to 80 ug/ml)”.

B1: PSA 210-230 peptide (peptide)
peptide: CALPERPSLYTKVVHYRKWIK
notes: Synthetic peptide, >95% purity, bought from Research Genetics Inc; also called 21-mer PSA 210-230 peptide
B1: the binding result with HLA-A0201 [3] is given as “binds”.

Consider ALQGIIHSI (Synthetic peptide, >95% purity) [TEM8 207-215 peptide], for which the binding result with HLA-A0201 [2] is listed as “binds”.

Regarding SMNDGLSFI (Synthetic peptide, >95% purity) [TEM8 298-306 peptide], the binding result with HLA-A0201 [2] was “binds”.
